# Experimental data published in patent US7078038 (INSTITUT DE RECHERCHE POUR LE DEVELOPPEMENT I R D, dated 2006).
# B1: CXCR4 receptor on the cell surface (receptor)
# chain: MEGISIYTSDNYTEEMGSGDYDSMKEPCFREENANFNKIFLPTIYSIIFLTGIVGNGLVILVMGYQKKLRSMTDKYRLHLSVADLLFVITLPFWAVDAVANWYFGNFLCKAVHVIYTVNLYSSVLILAFISLDRYLAIVHATNSQRPRKLLAEKVVYVGVWIPALLLTIPDFIFANVSEADDRYICDRFYPNDLWVVVFQFQHIMVGLILPGIVILSCYCIIISKLSHSKGHQKRKALKTTVILILAFFACWLPYYIGISIDSFILLEIIKQGCEFENTVHKWISITEALAFFHCCLNPILYAFLGAKFKTSAQHALTSVSRGSSLKILSKGKRGGHSSVSTESESSSFHSS
# notes: whole, on cells; also called CXCR4 co-receptor; CEM cells CD4+/CXCR4+
# Biological target: T1, W338S gp120 (rgp120 of the HXB2 clone of HIV-IIIB with the W338S mutation) (HIV-1 (HXB2 clone of HIV-IIIB), UniProt P04578 33-511)
# T1 construct: domain: gp120; Position counted in HxBc2 numbering; also called muted gp120; mutant gp120
# Assay: FACS on CEM cells: no labelling by anti-CXCR4 12GS after incubation with gp120
binder,measurement,value
B1,binding result,binds
